Reference: patent US20250269048A1 (BIVICTRIX, published 2025)

What was measured:
human CD7 [1] = biological target: T1, human CD7 (human, UniProt P09564 26-180, limits assumed); assay: SPR
T1 construct: The construct is not described
T1 sequence (looked up): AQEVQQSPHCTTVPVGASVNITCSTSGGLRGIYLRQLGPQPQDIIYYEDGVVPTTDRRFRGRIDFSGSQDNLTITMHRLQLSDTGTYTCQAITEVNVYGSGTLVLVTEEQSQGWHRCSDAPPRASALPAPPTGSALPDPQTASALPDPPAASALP

human CD7 on cells [2] = biological target: T2, human CD7 on cells (human, UniProt P09564 26-240); assay: FACS; cells not named
T2 construct: whole, on cells; Target of the FACS and cell capture values and of the kill assays on CD7 single positive cells; also called CD7+ cells; Jurkat (CD33-/CD7+)
T2 sequence (looked up): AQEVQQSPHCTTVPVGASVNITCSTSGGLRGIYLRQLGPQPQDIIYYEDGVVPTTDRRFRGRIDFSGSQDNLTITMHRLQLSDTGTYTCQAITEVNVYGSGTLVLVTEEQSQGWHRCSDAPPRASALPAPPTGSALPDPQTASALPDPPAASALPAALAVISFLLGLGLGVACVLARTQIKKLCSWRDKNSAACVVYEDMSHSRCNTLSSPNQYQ

human CD7 [3] = biological target: T1, human CD7; assay: SPR; reference 7-AA-WT
human CD7 on cells [4] = biological target: T2, human CD7 on cells; assay: FACS; reference 7-PP-1 WT (itself)
human CD7 [5] = biological target: T1, human CD7; assay: SPR (Kd); value of the CD7 arm 7-PP-6
human CD33 = biological target: T3, human CD33 (human, UniProt P20138 18-259, limits assumed); assay: SPR (Kd); value of the CD33 arm 33-PP-1 WT
T3 construct: The construct is not described

human CD7 [6] = biological target: T1, human CD7; assay: SPR (Kd); value of the CD7 arm 7-PP-7

T3 sequence (P20138 18-259 limits assumed): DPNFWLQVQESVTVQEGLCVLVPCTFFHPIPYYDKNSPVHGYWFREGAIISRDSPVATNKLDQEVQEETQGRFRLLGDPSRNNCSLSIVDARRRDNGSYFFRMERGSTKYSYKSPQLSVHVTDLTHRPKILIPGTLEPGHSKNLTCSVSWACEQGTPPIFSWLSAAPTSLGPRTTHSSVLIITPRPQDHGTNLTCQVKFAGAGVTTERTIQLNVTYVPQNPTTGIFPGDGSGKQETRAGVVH

B1: CD7-PP-1-WT CD7 binding arm (Fab, V domains shown)
VH: QVQLQESGAELVKPGASVKLSCKASGYTFTSYWMHWVKQRPGQGLEWIGKINPSNGRTNYNEKFKSKATLTVDKSSSTAYMQLSSLTSEDSAVYYCARGGVYYDLYYYALDYWGQGTTVTVSS
VL: DIELTQSPATLSVTPGDSVSLSCRASQSISNNLHWYQQKSHESPRLLIKSASQSISGIPSRFSGSGSGTDFTLSINSVETEDFGMYFCQQSNSWPYTFGGGTKLEIKR
notes: also called PP WT
Kd (human CD7 [1]): 3.56 nM
FACS binding (human CD7 on cells [2]): 0.53
Fold Reduction in binding affinity compared to WT (Kd) (human CD7 [3]): 1.36 fold
FACS fold reduction compared to PP WT (human CD7 on cells [4]): 1 fold

B2: BVX130 (bispecific antibody)
heavy: QVQLQESGAELVKPGASVKLSCKASGYTFTSYWMHWVKQRPGQGLEWIGKINPSNGRTNYNEKFKSKATLTVDKSSSTAYMQLSSLTSEDSAVYYCARGGVYYALYYYALDYWGQGTTVTVSSASTKGPSVFPLAPSSKSTSGGTAALGCLVKDYFPEPVTVSWNSGALTSGVHTFPAVLQSSGLYSLSSVVTVPSSSLGTQTYCCNVNHKPSNTKVDKKVEPKSCDKT
light: DIELTQSPATLSVTPGDSVSLSCRASQSISNNLHWYQQKSHESPRLLIKSASQSISGIPSRFSGSGSGTDFTLSINSVETEDFGMYFCQQSNSWPYTFGGGTKLEIKRTVAAPSVFIFPPSDEQLKSGTASVVCLLNNFYPREAKVQWKVDNALQSGNSQESVTEQDSKDSTYSLSSTLTLSKADYEKHKVYACEVTHQGLSSPVTKSFNRGEC
VH: EVQLVQSGAEVKKPGSSVKVSCKASGYTITDSNIHWVRQAPGQSLEWIGYIYPYNGGTDYNQKFKNRATLTVDNPTNTAYMELSSLRSEDTAFYYCVNGNPWLAYWGQGTLVTVSS
VL: DIQLTQSPSTLSASVGDRVTIICRASESLDNYGIRFLTWFQQKPGKAPKLLMYAASNQGSGVPSRFSGSGSGTEFTLTISSLQPDDFATYYCQQTKEVPWSFGQGTKLEIK
notes: bi-Fab; also called CD33-PP-1 WT/CD7-PP-6
Fold reduction in binding affinity vs 7-PP-1 WT (human CD7 [5]): 12.7 fold
Fold reduction in binding affinity vs 33-PP-1 WT (human CD33): 0 fold

B3: BVX140 (bispecific antibody)
heavy: QVQLQESGAELVKPGASVKLSCKASGYTFTSYWMHWVKQRPGQGLEWIGKINPSNGGTNYNEKFKSKATLTVDKSSSTAYMQLSSLTSEDSAVYYCARGGVYYDLYYAALDYWGQGTTVTVSSASTKGPSVFPLAPSSKSTSGGTAALGCLVKDYFPEPVTVSWNSGALTSGVHTFPAVLQSSGLYSLSSVVTVPSSSLGTQTYCCNVNHKPSNTKVDKKVEPKSCDKT
light: DIELTQSPATLSVTPGDSVSLSCRASQSISNNLHWYQQKSHESPRLLIKSASQSISGIPSRFSGSGSGTDFTLSINSVETEDFGMYFCQQSNSWPYTFGGGTKLEIKRTVAAPSVFIFPPSDEQLKSGTASVVCLLNNFYPREAKVQWKVDNALQSGNSQESVTEQDSKDSTYSLSSTLTLSKADYEKHKVYACEVTHQGLSSPVTKSFNRGEC
VH: EVQLVQSGAEVKKPGSSVKVSCKASGYTITDSNIHWVRQAPGQSLEWIGYIYPYNGGTDYNQKFKNRATLTVDNPTNTAYMELSSLRSEDTAFYYCVNGNPWLAYWGQGTLVTVSS
VL: DIQLTQSPSTLSASVGDRVTIICRASESLDNYGIRFLTWFQQKPGKAPKLLMYAASNQGSGVPSRFSGSGSGTEFTLTISSLQPDDFATYYCQQTKEVPWSFGQGTKLEIK
notes: bi-Fab; also called CD33-PP-1 WT/CD7-PP-7
Fold reduction in binding affinity vs 7-PP-1 WT (human CD7 [6]): 152 fold
Fold reduction in binding affinity vs 33-PP-1 WT (human CD33): 0 fold
